Experimental findings from PMC4949553 are described below.

Data set [1] in a line: non-denaturing PAGE and western blot, COS-7. Conditions: glycan lost.
Data set [2] can be described thus: western blot, soluble plus insoluble intracellular fractions. Conditions: glycan lost; control: G392E NS.
Data set [3] in a line: western densitometry, insoluble fraction, MG132 treatment. Conditions: glycan lost; control: G392E NS.
A short description of data set [4]: polymer sandwich ELISA of cell lysates. Conditions: glycan lost.
The nature of data set [5]: SDS/PAGE western blot densitometry of insoluble fraction. Conditions: glycan lost; control: wild type NS.
Data set [6] can be described thus: 35S pulse-chase, total intracellular NS up to 24 h. Conditions: glycan lost; control: G392E NS.

B1: G392E neuroserpin (G392E NS): G392E/N321A (protein)
parent chain: MAFLGLFSLLVLQSMATGATFPEEAIADLSVNMYNRLRATGEDENILFSPLSIALAMGMMELGAQGSTQKEIRHSMGYDSLKNGEEFSFLKEFSNMVTAKESQYVMKIANSLFVQNGFHVNEEFLQMMKKYFNAAVNHVDFSQNVAVANYINKWVENNTNNLVKDLVSPRDFDAATYLALINAVYFKGNWKSQFRPENTRTFSFTKDDESEVQIPMMYQQGEFYYGEFSDGSNEAGGIYQVLEIPYEGDEISMMLVLSRQEVPLATLEPLVKAQLVEEWANSVKKQKVEVYLPRFTVEQEIDLKDVLKALGITEIFIKDANLTGLSDNKEIFLSKAIHKSFLEVNEEGSEAAAVSGMIAISRMAVLYPQVIVDHPFFFLIRNRRTGTILFMERVMHPETMNTSGHDFEEL
Regarding B1, the oligomerisation result in data set [1] (control: G392E NS) and in data set [4] (control: G392E NS) was “increases” throughout. Moreover, the localisation_or_trafficking result in data set [2] was “increases”. Besides, the “other: insoluble NS accumulating under proteasome inhibition” value in data set [3] is on record as “increases”.

B2: neuroserpin (NS), wild type: N157A/N321A (protein)
parent chain: MAFLGLFSLLVLQSMATGATFPEEAIADLSVNMYNRLRATGEDENILFSPLSIALAMGMMELGAQGSTQKEIRHSMGYDSLKNGEEFSFLKEFSNMVTAKESQYVMKIANSLFVQNGFHVNEEFLQMMKKYFNAAVNHVDFSQNVAVANYINKWVENNTNNLVKDLVSPRDFDAATYLALINAVYFKGNWKSQFRPENTRTFSFTKDDESEVQIPMMYQQGEFYYGEFSDGSNEAGGIYQVLEIPYEGDEISMMLVLSRQEVPLATLEPLVKAQLVEEWANSVKKQKVEVYLPRFTVEQEIDLKDVLKALGITEIFIKDANLTGLSDNKEIFLSKAIHKSFLEVNEEGSEAAAVSGMIAISRMAVLYPQVIVDHPFFFLIRNRRTGTILFMGRVMHPETMNTSGHDFEEL
Turning to B2, the “other: amount in insoluble intracellular fraction” value in data set [5] is given as “increases”. The oligomerisation entry in data set [1] (control: wild type NS) and in data set [4] (control: wild type NS) was “increases” in each case.

B3: neuroserpin (NS), wild type: N157A (protein)
parent chain: MAFLGLFSLLVLQSMATGATFPEEAIADLSVNMYNRLRATGEDENILFSPLSIALAMGMMELGAQGSTQKEIRHSMGYDSLKNGEEFSFLKEFSNMVTAKESQYVMKIANSLFVQNGFHVNEEFLQMMKKYFNAAVNHVDFSQNVAVANYINKWVENNTNNLVKDLVSPRDFDAATYLALINAVYFKGNWKSQFRPENTRTFSFTKDDESEVQIPMMYQQGEFYYGEFSDGSNEAGGIYQVLEIPYEGDEISMMLVLSRQEVPLATLEPLVKAQLVEEWANSVKKQKVEVYLPRFTVEQEIDLKDVLKALGITEIFIKDANLTGLSDNKEIFLSKAIHKSFLEVNEEGSEAAAVSGMIAISRMAVLYPQVIVDHPFFFLIRNRRTGTILFMGRVMHPETMNTSGHDFEEL
On to B3, for which the oligomerisation entry in data set [1] (control: wild type NS) and in data set [4] (control: wild type NS) was “increases” in each case.

B4: G392E neuroserpin (G392E NS): G392E/N157A (protein)
parent chain: MAFLGLFSLLVLQSMATGATFPEEAIADLSVNMYNRLRATGEDENILFSPLSIALAMGMMELGAQGSTQKEIRHSMGYDSLKNGEEFSFLKEFSNMVTAKESQYVMKIANSLFVQNGFHVNEEFLQMMKKYFNAAVNHVDFSQNVAVANYINKWVENNTNNLVKDLVSPRDFDAATYLALINAVYFKGNWKSQFRPENTRTFSFTKDDESEVQIPMMYQQGEFYYGEFSDGSNEAGGIYQVLEIPYEGDEISMMLVLSRQEVPLATLEPLVKAQLVEEWANSVKKQKVEVYLPRFTVEQEIDLKDVLKALGITEIFIKDANLTGLSDNKEIFLSKAIHKSFLEVNEEGSEAAAVSGMIAISRMAVLYPQVIVDHPFFFLIRNRRTGTILFMERVMHPETMNTSGHDFEEL
Take B4: the oligomerisation result in data set [1] (control: G392E NS) is listed as “increases”. Also, in data set [2], the localisation_or_trafficking entry is recorded as “increases”.

B5: neuroserpin (NS), wild type: N321A (protein)
parent chain: MAFLGLFSLLVLQSMATGATFPEEAIADLSVNMYNRLRATGEDENILFSPLSIALAMGMMELGAQGSTQKEIRHSMGYDSLKNGEEFSFLKEFSNMVTAKESQYVMKIANSLFVQNGFHVNEEFLQMMKKYFNAAVNHVDFSQNVAVANYINKWVENNTNNLVKDLVSPRDFDAATYLALINAVYFKGNWKSQFRPENTRTFSFTKDDESEVQIPMMYQQGEFYYGEFSDGSNEAGGIYQVLEIPYEGDEISMMLVLSRQEVPLATLEPLVKAQLVEEWANSVKKQKVEVYLPRFTVEQEIDLKDVLKALGITEIFIKDANLTGLSDNKEIFLSKAIHKSFLEVNEEGSEAAAVSGMIAISRMAVLYPQVIVDHPFFFLIRNRRTGTILFMGRVMHPETMNTSGHDFEEL
For B5, the oligomerisation result in data set [1] (control: wild type NS) and in data set [4] (control: wild type NS) was “increases” in each case.

B6: G392E neuroserpin (G392E NS): G392E/N401A (protein)
parent chain: MAFLGLFSLLVLQSMATGATFPEEAIADLSVNMYNRLRATGEDENILFSPLSIALAMGMMELGAQGSTQKEIRHSMGYDSLKNGEEFSFLKEFSNMVTAKESQYVMKIANSLFVQNGFHVNEEFLQMMKKYFNAAVNHVDFSQNVAVANYINKWVENNTNNLVKDLVSPRDFDAATYLALINAVYFKGNWKSQFRPENTRTFSFTKDDESEVQIPMMYQQGEFYYGEFSDGSNEAGGIYQVLEIPYEGDEISMMLVLSRQEVPLATLEPLVKAQLVEEWANSVKKQKVEVYLPRFTVEQEIDLKDVLKALGITEIFIKDANLTGLSDNKEIFLSKAIHKSFLEVNEEGSEAAAVSGMIAISRMAVLYPQVIVDHPFFFLIRNRRTGTILFMERVMHPETMNTSGHDFEEL
In the case of B6, the degradation_or_half_life result in data set [6] is listed as “no change”. The oligomerisation entry in data set [1] (control: G392E NS) and in data set [4] (control: G392E NS) was “increases” throughout. In addition, in data set [2], the localisation_or_trafficking entry is recorded as “increases”. The “other: insoluble NS accumulating under proteasome inhibition” value in data set [3] is “increases”.
